# Laboratory results as given in paper PMC3269026 (Frontiers in Microbiology, 2012).
# T1: translocated intimin receptor (Tir) of EPEC, delivered to HEp-2 cells (EPEC (strain JPN15.96), UniProt B7UM99 1-550)
# T1 sequence: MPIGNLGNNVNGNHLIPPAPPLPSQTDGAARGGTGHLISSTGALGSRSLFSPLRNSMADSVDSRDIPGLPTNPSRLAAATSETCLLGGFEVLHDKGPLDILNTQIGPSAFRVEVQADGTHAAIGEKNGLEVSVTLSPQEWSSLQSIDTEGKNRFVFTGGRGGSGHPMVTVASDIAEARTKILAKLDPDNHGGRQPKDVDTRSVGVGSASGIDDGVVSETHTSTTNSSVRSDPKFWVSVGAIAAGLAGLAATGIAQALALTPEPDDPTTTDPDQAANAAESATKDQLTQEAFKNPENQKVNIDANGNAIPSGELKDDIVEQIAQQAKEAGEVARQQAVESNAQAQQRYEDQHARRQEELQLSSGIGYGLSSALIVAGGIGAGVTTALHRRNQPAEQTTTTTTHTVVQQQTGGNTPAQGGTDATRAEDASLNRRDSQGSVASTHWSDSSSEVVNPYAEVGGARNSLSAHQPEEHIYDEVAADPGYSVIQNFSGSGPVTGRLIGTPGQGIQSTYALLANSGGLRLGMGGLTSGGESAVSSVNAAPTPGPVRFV
# Target: T1, translocated intimin receptor (Tir) of …
# Assay: bacterial adherence to Tir-primed cells
binder,measurement,value
EHEC intimin (natural protein) NGENYFKLGSDSKLLTHDSYQNRLFYTLKTGETVADLSKSQDINLSTIWSLNKHLYSSESEMMKAAPGQQIILPLKKLPFEYSALPLLGSAPLVAAGGVAGHTNKLTKMSPDVTKSNMTDDKALNYAAQQAASLGSQLQSRSLNGDYAKDTALGIAGNQASSQLQAWLQHYGTAEVNLQSGNNFDGSSLDFLLPFYDSEKMLAFGQVGARYIDSRFTANLGAGQRFFLPANMLGYNVFIDQDFSGDNTRLGIGGEYWRDYFKSSVNGYFRMSGWHESYNKKDYDERPANGFDIRFNGYLPSYPALGAKLIYEQYYGDNVALFNSDKLQSNPGAATVGVNYTPIPLVTMGIDYRHGTGNENDLLYSMQFRYQFDKSWSQQIEPQYVNELRTLSGSRYDLVQRNNNIILEYKKQDILSLNIPHDINGTEHSTQKIQLIVKSKYGLDRIVWDDSALRSQGGQIQHSGSQSAQDYQAILPAYVQGGSNIYKVTARAYDRNGNSSNNVQLTITVLSNGQVVDQVGVTDFTADKTSAKADNADTITYTATVKKNGVAQANVPVSFNIVSGTATLGANSAKTDANGKATVTLKSSTPGQVVVSAKTAEMTSALNASAVIFFDQTKASITEIKADKTTAVANGKDAIKYTVKVMKNGQPVNNQSVTFSTNFGMFNGKSQTQATTGNDGRATITLTSSSAGKATVSATVSDGAEVKATEVTFFDELKIDNKVDIIGNNVRGELPNIWLQYGQFKLKASGGDGTYSWYSENTSIATVDASGKVTLNGKGSVVIKATSGDKQTVSYTIKAPSYMIKVDKQAYYADAMSICKNLLPSTQTVLSDIYDSWGAANKYSHYSSMNSITAWIKQTSSEQRSGVSSTYNLITQNPLPGVNVNTPNVYAVCVE,fold binding over C. rodentiumΔeae,~20 fold
